B1: HDV Ribozyme (parent)
chain: GGCCGGCAUGGUCCCAGCCUCCUCGCUGGCGCCGGCUGGGCAACAUUCCGAGGGGACCGUCCCCUCGGUAAUGGCGAAUGGGACCCA

Variants of: B1
Test: self-cleavage, relative activity (ratio to wild type); higher = more cleavage; co-transcriptional

Row | Variant | self-cleavage
1 | U20G G68A | 0.0378
2 | C24A A51C | 0.516
3 | U60A C85U | 0.912
4 | C41G A56C | 0.942
5 | G10A G40A | 0.905
6 | G29A G81A | 0.138
7 | U9G C66A | 0.594
8 | G52C C61G | 0.886
9 | C7A U65G | 0.246
10 | C57A A83U | 0.554
11 | G6U U20G | 0
12 | C3A C15U | 0.371
13 | G10A C58A | 0.816
14 | U47A C86G | 0.733
15 | G2C A43G | 0
16 | G2C U60G | 0.0326
17 | C44U G80A | 0.125
18 | U60A U79G | 0.807
19 | C30G C32G | 0.0627
20 | G52A G54U | 0.815
21 | C18G U47A | 0
22 | A71C A77U | 0.322
23 | C21G C85U | 0
24 | C24G C57U | 0.14

Row | Variant | self-cleavage
25 | G10U U37C | 0.587
26 | C63G A87U | 0.71
27 | A56G C84G | 0.598
28 | C21U A42C | 0.203
29 | G1C C4A | 0
30 | U37C G80U | 0.224
31 | U37G G81C | 0
32 | C32A C48U | 0.106
33 | C63G G68C | 0.232
34 | A8U C66U | 0.906
35 | G54C A78G | 0.507
36 | U60C C66U | 0.997
37 | G5C U69C | 0.396
38 | U12C C61A | 0.511
39 | U27C A51U | 0.804
40 | U9A U65C | 1.07
41 | U20G U46C | 0.185
42 | U23C G76U | 1.14
43 | C19A G76U | 0.262
44 | C14U C30A | 0.675
45 | G5A U69G | 0.353
46 | A16G A83C | 0.462
47 | G74A C84G | 0.168
48 | C4A U27G | 0.225

Row | Variant | self-cleavage
49 | C22G C85G | 0.0396
50 | U9A C86U | 1.09
51 | C30A C36A | 0.0361
52 | G17C A51C | 0.308
53 | C4G A56G | 0.249
54 | A16G U46C | 0.293
55 | U9G A42G | 0.727
56 | G67A U72C | 0.539
57 | C41U G76U | 0.897
58 | U9G G40C | 0.437
59 | C4U C32U | 0.525
60 | G52C A56G | 0.851
61 | G67U G81U | 0.155
62 | G2U C49A | 0.118
63 | C4A C7A | 0.0449
64 | G34A U65A | 0.0692
65 | G82A A83G | 0.156
66 | C19G C57G | 0.0739
67 | G35U C85G | 0.356
68 | C21U G55C | 0.18
69 | U46C U60C | 0.772
70 | C7G G53A | 0.26
71 | C4A G73A | 0
72 | C41U G76C | 0.861

Row | Variant | self-cleavage
73 | U37A C44G | 0.0898
74 | U12C C13G | 0
75 | C15U G25A | 0.0898
76 | C18A U47A | 0.0692
77 | G17A G31A | 0.234
78 | C15U U69C | 0.643
79 | G54A C85A | 0.917
80 | G52A U60A | 0.975
81 | C15U C58G | 1.36
82 | G11C G80C | 0.295
83 | G11C G35U | 0.271
84 | C48G C62U | 0.746
85 | U12C G28U | 0.0378
86 | G28U U60G | 0.123
87 | C4G G50C | 0.237
88 | U20G C36A | 0
89 | C14U A45G | 0.988
90 | C19U C22A | 0.0886
91 | C57A G80A | 0.218
92 | U20C U23A | 0.115
93 | A8G C41G | 0.578
94 | G67A C84A | 0.831
95 | C19A U47C | 0.148
96 | G2U C4A | 0

Row | Variant | self-cleavage
97 | G38U C75A | 0.208
98 | C62G G81A | 0.299
99 | C30A U46C | 0.237
100 | C19G C33G | 0
101 | C7U C13G | 0
102 | G50C A78G | 0.584
103 | G40A C61U | 0.765
104 | C15G C36U | 0.264
105 | G25U G80U | 0.115
106 | C21A A71C | 0.0692
107 | C33G G55U | 0.204
108 | G67C G74A | 0.415
109 | C21A G59U | 0.0545
110 | A71C A78C | 0.219
111 | G2U G82C | 0.112
112 | G55C G81U | 0.256
113 | G31U A45C | 0.119
114 | G25C A70G | 0.0573
115 | U23A C33U | 1.05
116 | G6C U27A | 0.332
117 | C15U C66A | 1.11
118 | U69A A87U | 0.913
119 | G50U G53A | 0.971
120 | C21G G29U | 0.0733

Row | Variant | self-cleavage
121 | G29C A83G | 0.0863
122 | A45U C64G | 0.671
123 | G38U C86A | 0.297
124 | G67U A70C | 0.987
125 | G6C A42U | 0.158
126 | G1U C32G | 0.305
127 | G25A A71G | 0.0594
128 | G10U A45C | 0.175
129 | G68U U79A | 0.928
130 | C22A U65A | 0.237
131 | G34A U60C | 0.258
132 | U20C C36G | 0.111
133 | U9G G28U | 0.151
134 | G28A C66G | 0.138
135 | C61G U79G | 0.437
136 | U23A A70C | 1.01
137 | A56G G76C | 1.16
138 | U60A A70G | 0.77
139 | G2U G17C | 0.0228
140 | C19U U79G | 0.0997
141 | C22A U60G | 0.177
142 | G6U A45U | 0.475
143 | G5U G34A | 0.0875
144 | G29U G68U | 0.135

Row | Variant | self-cleavage
145 | U23C A56U | 0.987
146 | A42U C44G | 0.464
147 | C18A G53C | 0.214
148 | G5A A77U | 0
149 | A8G G28U | 0.185
150 | U9C G39U | 0.665
151 | A43C A87U | 0.59
152 | G29C G67A | 0.0739
153 | C19A C57U | 0.155
154 | U37C G74U | 0.332
155 | C19A A43U | 0.0222
156 | A8U G55C | 1.04
157 | U37G G52A | 0.106
158 | G28A A77C | 0.119
159 | A16C U20G | 0
160 | G2U G81U | 0.0198
161 | A45U G54A | 0.939
162 | A16G A77G | 0.831
163 | C15G G82A | 0.0978
164 | G38C A51U | 0.181
165 | G2C C18A | 0.0346
166 | C36U G39U | 0.245
167 | U23G C24G | 0.16

Reference: the RNAGym collection of RNA variant scans (doi:10.7554/elife.80360)
